This series concerns the target PCBP2 KH1/2 (human, UniProt Q15366 1-168). Kind of series: ITC.

Sequence of PCBP2 KH1/2 (Q15366 1-168): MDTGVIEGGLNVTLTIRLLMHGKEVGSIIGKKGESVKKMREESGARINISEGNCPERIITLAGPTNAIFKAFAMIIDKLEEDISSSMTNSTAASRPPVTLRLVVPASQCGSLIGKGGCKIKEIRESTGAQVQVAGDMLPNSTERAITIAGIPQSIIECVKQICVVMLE

A word on the Kd: it is the equilibrium constant for the complex coming apart. In turn, GCUCUGGGGUUGUACCCACCCCAGAGC (structured_RNA) [PV stem-loop B] registered a dissociation constant (Kd) of 22.9 ± 6.3 µM.

These data come from PMC10484678.
